The values below come from patent publication US20090018083A1.

In test [1] the target is T1, BCL6-3C BTB domain (human BCL6 residues 5-129 with C8Q/C67R/C84N) (human), P41182. In words: ITC in solution, 25° C. Particulars: remark: other sources report otherwise.
Test [2] deals with T1, BCL6-3C BTB domain (human BCL6 residues …). Kind of test: ITC in solution, 25° C; ITC in solution, not SPR. The settings on record: remark: other sources report otherwise.

Regarding LVATVKEAGRSIHEIPR [SMRT^1414-1430 peptide (SMRT-BBD), no additional N-terminal residues], in test [1], the -TΔS came to 16.4, the stoichiometry (SMRT peptides per BCL6 chain) (SMRT peptides per BCL6 chain) is 1.11 and the ΔH was -23.2 kcal/mol. Also, the Kd (in general, the concentration at which binding is half-saturated) in test [2] stood at 11.4 µM.
